The assay deals with rabbit skeletal muscle G-actin (rabbit) (UniProt P68135). The experiment in a line: SPR.

pKd: −log10 of the molar value.

In the case of “His-tagged ZASP-S WT (N21 His-tag) (from UniProt O75112-6 1-283) (natural protein)”, the pKd was 8.70. For “untagged ZASP-S WT (from UniProt O75112-6 1-283) (natural protein)”, the pKd was 7.21.

(Values after PMC7357845.)
